Reference: publication PMC4204210 (Molecular cell, 2014)

Molecular target: the molecule itself
Assay: SEC-MALS

B1: Get3 purified under reducing conditions (Get3red) (natural protein, yeast)
chain: MDLTVEPNLHSLITSTTHKWIFVGGKGGVGKTTSSCSIAIQMALSQPNKQFLLISTDPAHNLSDAFGEKFGKDARKVTGMNNLSCMEIDPSAALKDMNDMAVSRANNNGSDGQGDDLGSLLQGGALADLTGSIPGIDEALSFMEVMKHIKRQEQGEGETFDTVIFDTAPTGHTLRFLQLPNTLSKLLEKFGEITNKLGPMLNSFMGAGNVDISGKLNELKANVETIRQQFTDPDLTTFVCVCISEFLSLYETERLIQELISYDMDVNSIIVNQLLFAENDQEHNCKRCQARWKMQKKYLDQIDELYEDFHVVKMPLCAGEIRGLNNLTKFSQFLNKEYNPITDGKVIYELEDKE
For B1, which “stoichiometry N” value is on record?
The value was 2.

B2: Get3 oxidised with 2 mM H2O2 / 50 µM Cu2+ (Get3ox) (natural protein, yeast)
chain: MDLTVEPNLHSLITSTTHKWIFVGGKGGVGKTTSSCSIAIQMALSQPNKQFLLISTDPAHNLSDAFGEKFGKDARKVTGMNNLSCMEIDPSAALKDMNDMAVSRANNNGSDGQGDDLGSLLQGGALADLTGSIPGIDEALSFMEVMKHIKRQEQGEGETFDTVIFDTAPTGHTLRFLQLPNTLSKLLEKFGEITNKLGPMLNSFMGAGNVDISGKLNELKANVETIRQQFTDPDLTTFVCVCISEFLSLYETERLIQELISYDMDVNSIIVNQLLFAENDQEHNCKRCQARWKMQKKYLDQIDELYEDFHVVKMPLCAGEIRGLNNLTKFSQFLNKEYNPITDGKVIYELEDKE
modifications: intramolecular disulfide bonds connecting the next-neighbor conserved cysteines (C242/C244 and C285/C288)
For B2, which “stoichiometry N” value is on record?
The value was 4.
